From IntAct's records for PubMed 10220404

B1: Protein enabled (Drosophila melanogaster (Fruit fly)), Q8T4F7 (parent)
chain: MAMKKLYAKTSFTSKKPSSAANSTPILAYHQQQHQQPGNGICEFQVVAPGHSGELMIRRSQSMHHKMSPPVGGLGSKSEYYSIEELQELDLLDYRHPMYHHYQQQELRQRYHEHEQLVLQLPKATSPKAGPIYEAPQRSQQQQDQMLYVPTAAQRDSSSSAAATSIASSSTLTSSPSPSSSSSLIFSTLRKCVSPSNPSVNPNQPSKTQPSKLGCSMSFSIRTTTATAATAAAANAATATLSTQQQQQQAQQQHKQHLYSNIHHYLIRQQQQKQHYTLQRRHNSVKDKFIGGITTIFAEQSIIGARASVMVYDDNQKKWVPSGSSSGLSKVQIYHHQQNNTFRVVGRKLQDHEVVINCSILKGLKYNQATATFHQWRDSKFVYGLNFSSQNDAENFARAMMHALEVLSGRVANNPGGPPTNGNGYEEDMGYRTMTSEDAAILRQNNSIGGHVTPSAQTPTSQTNQNNIPQSPPTPQGHHRTSSAPPAPQPQQQQQQQQAQQMGQPGSHYGPTGNGPTSNGLPQQVNSQIPPAPQQQPQQQQFQQQQQQQQYQQMVQAGYAPSQQYQQPHYVLSNSNPNLTVHQYPTQQAQQQPPQAPQPPLQNGGMYMVGHGHLPSSASANSVVYASQQQMLPQAHPQAPQAPTMPGPGYGGPPVPPPQQQAENPYGQVPMPPPMNPSQQQQPGQVPLNRMSSQGGPGGPPAPAPPPPPPSFGGAAGGGPPPPAPPQMFNGAPPPPAMGGGPPPAPPAPPAMGGGPPPAPGGPGAPPPPPPPPGLGGAPKKEDPQADLMGSLASQLQQIKLKKNKVTTSAPENSGSSTSSGGSGNYGTIGRSSNGMASMMDEMAKTLARRRAQAEKKDPDPEAEVKKRPWEKSNTLPHKLSGGAGSGSAGSGHEGANGNSGGAGSNTTNSGGESPRPMRKRFGSASEETILKVNGDGLSLALSNGDLDTLKAEIVREMRLEIQKVKNEIIDAIKSEFNRR

Columns and labels:
abl_drome Abl, P00522 = variants of: B1; conditions: with abl_drome Abl
Sequence of abl_drome Abl, P00522 (P00522 whole entry): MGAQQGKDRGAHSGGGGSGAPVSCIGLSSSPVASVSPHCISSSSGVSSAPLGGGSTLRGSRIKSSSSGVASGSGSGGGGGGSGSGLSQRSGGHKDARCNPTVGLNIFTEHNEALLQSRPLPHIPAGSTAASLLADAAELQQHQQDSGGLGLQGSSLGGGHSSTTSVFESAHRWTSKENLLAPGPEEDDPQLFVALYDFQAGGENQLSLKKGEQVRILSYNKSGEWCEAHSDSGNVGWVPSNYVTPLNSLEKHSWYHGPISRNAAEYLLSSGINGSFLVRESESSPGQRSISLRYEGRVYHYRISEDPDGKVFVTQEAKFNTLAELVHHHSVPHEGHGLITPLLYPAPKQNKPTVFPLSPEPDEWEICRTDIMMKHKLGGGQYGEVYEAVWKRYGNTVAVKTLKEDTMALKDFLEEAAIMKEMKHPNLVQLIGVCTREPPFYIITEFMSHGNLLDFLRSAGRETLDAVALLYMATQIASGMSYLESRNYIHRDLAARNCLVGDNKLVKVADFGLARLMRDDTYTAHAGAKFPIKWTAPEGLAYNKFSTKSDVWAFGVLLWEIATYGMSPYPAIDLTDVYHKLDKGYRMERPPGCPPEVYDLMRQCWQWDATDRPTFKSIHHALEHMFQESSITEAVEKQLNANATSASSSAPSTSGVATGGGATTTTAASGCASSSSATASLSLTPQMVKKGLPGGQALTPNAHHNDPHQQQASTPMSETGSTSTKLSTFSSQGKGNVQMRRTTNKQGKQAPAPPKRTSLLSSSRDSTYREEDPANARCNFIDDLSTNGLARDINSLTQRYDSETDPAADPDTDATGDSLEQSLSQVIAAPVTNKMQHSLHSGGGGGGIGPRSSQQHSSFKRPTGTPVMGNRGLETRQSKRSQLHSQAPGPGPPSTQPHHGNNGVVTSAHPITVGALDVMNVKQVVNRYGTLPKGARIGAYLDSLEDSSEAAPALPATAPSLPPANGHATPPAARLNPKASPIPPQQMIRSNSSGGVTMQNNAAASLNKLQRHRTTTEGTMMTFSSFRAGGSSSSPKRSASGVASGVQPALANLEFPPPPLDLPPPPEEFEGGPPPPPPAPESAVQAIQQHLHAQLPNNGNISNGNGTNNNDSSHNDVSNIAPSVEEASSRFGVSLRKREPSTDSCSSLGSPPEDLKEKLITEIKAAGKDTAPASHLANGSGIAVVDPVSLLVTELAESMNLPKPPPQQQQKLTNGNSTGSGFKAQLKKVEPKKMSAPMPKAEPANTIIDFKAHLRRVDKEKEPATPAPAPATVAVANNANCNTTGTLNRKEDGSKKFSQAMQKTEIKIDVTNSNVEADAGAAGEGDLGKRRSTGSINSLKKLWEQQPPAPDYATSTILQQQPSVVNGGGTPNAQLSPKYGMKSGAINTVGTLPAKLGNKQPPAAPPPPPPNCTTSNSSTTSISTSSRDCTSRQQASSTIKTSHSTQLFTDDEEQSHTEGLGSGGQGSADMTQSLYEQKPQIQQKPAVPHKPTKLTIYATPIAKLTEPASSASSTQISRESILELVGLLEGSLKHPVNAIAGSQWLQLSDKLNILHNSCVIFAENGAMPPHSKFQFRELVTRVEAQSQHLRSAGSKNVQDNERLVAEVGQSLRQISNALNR

src_mouse Src, P05480 = variants of: B1; conditions: with src_mouse Src

effect of a mutation on the interaction (abl_drome Abl, P00522) | effect of a mutation on the interaction (src_mouse Src, P05480) | Variant
decreasing interaction | decreasing interaction | P701A;P707A;P708A;P709A
decreasing interaction | decreasing interaction | P763A;P770A;P771A;P772A
